T1: NUPR1 (recombinant, purified) (UniProt O60356 1-82)
T1 chain: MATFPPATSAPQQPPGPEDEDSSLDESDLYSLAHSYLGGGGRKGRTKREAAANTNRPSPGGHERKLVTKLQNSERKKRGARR

B1: importin-α3 (residues 1–520), recombinant (domain or fragment, UniProt O00629 1-520, looked up)
chain: MADNEKLDNQRLKNFKNKGRDLETMRRQRNEVVVELRKNKRDEHLLKRRNVPHEDICEDSDIDGDYRVQNTSLEAIVQNASSDNQGIQLSAVQAARKLLSSDRNPPIDDLIKSGILPILVHCLERDDNPSLQFEAAWALTNIASGTSEQTQAVVQSNAVPLFLRLLHSPHQNVCEQAVWALGNIIGDGPQCRDYVISLGVVKPLLSFISPSIPITFLRNVTWVMVNLCRHKDPPPPMETIQEILPALCVLIHHTDVNILVDTVWALSYLTDAGNEQIQMVIDSGIVPHLVPLLSHQEVKVQTAALRAVGNIVTGTDEQTQVVLNCDALSHFPALLTHPKEKINKEAVWFLSNITAGNQQQVQAVIDANLVPMIIHLLDKGDFGTQKEAAWAISNLTISGRKDQVAYLIQQNVIPPFCNLLTVKDAQVVQVVLDGLSNILKMAEDEAETIGNLIEECGGLEKIEQLQNHENEDIYKLAYEIIDQFFSSDDIDEDPSLVPEAIQGGTFGFNSSANVPTEGFQ
notes: importin-α3 (KPNA4), residues 1–520, codon-optimized synthetic vector (Nzytech); called a 58 kDa protein with 6 tryptophans; also called KPNA4; importin-alpha3; source: final Superdex G200 16/60
B2: NUPR1 (recombinant, purified) (natural protein, UniProt O60356 1-82, looked up)
chain: MATFPPATSAPQQPPGPEDEDSSLDESDLYSLAHSYLGGGGRKGRTKREAAANTNRPSPGGHERKLVTKLQNSERKKRGARR
notes: Nuclear Protein 1 (NUPR1), described as an intrinsically disordered protein of 82 amino acids with two tyrosines (Tyr30, Tyr36); also called Nuclear Protein 1; rNUPR1; source: expressed and purified as described (12)

Columns and labels:
[1] = biological target: T1, NUPR1 (recombinant, purified); assay: ITC; 25°C, with ZZW-115
[2] = biological target: B2; assay: ITC; importin-α3 (100–110 μM) in the syringe, NUPR1 (5–10 μM) in the calorimetric cell, Tris 50 mM pH 8, 25°C; single binding site model (1:1); conditions: both partners purified
[3] = biological target: B2; assay: ITC; as a3 with ZZW-115 kept constant at 100 μM during the titration; analysed as an apparent quasibinary system and as an exact ternary system; 25°C; conditions: both partners purified
[4] = biological target: B1; assay: ITC; importin-α3 (100–110 μM) in the syringe, NUPR1 (5–10 μM) in the calorimetric cell, Tris 50 mM pH 8, 25°C; single binding site model (1:1); conditions: both partners purified
[5] = biological target: B1; assay: ITC; as a3 with ZZW-115 kept constant at 100 μM during the titration; analysed as an apparent quasibinary system and as an exact ternary system; 25°C; conditions: both partners purified

Row | Binder | Ka [1] [M⁻¹] | dH [2] [kcal/mol] | fold reduction in affinity with 100 μM ZZW-115 (ternary equilibrium analysis) [3] [fold] | Ka [4] [M⁻¹] | Kd [4] [µM] | Kd [5] [µM]
1 | B1 | 28000 | -13.7 | 21 | – | – | –
2 | B2 | – | – | – | 690000 | 1.4 | 35

Source: PMC7526551 (JCI Insight, 2020)
